B1: his-muCD8a-4-1BBL^ECD fusion protein (ligand, UniProt P01731 28-194, looked up)
chain: KPQAPELRIFPKKMDAELGQKVDLVCEVLGSVSQGCSWLFQNSSSKLPQPTFVVYMASSHNKITWDEKLNSSKLFSAMRDTNNKYVLTLNKFSKENEGYYFCSVISNSVMYFSSVVPVLQKVNSTTTKPVLRTPSPVHPTGTSQPQRPEDCRPRGSVKGTGLDFACDREGPELSPDDPAGLLDLRQGMFAQLVAQNVLLIDGPLSWYSDPGLAGVSLTGGLSYKEDTKELVVAKAGVYYVFFQLELRRVVAGEGSGSVSLALHLQPLRSAAGAAALALTVDLPPASSEARNSAFGFQGRLLHLSAGQRLGVHLHTEARARHAWQLTQGATVLGLFRVTPEIPAGLPSPRSE
notes: also called 4-1BB ligand protein; not shown: his-tag on the N side
B2: 100F3C4 (antibody, V domains shown)
VH: QVQLQESGPGLVKPSGTLSLTCAVSGGSISSSNWWSWVRQPPGKGLEWIGEIYHSGSTNYNPSLKSRVTMSVDKSKNQFSLELRSVTAADTAVYYCARDAVDAYYYYYGMDVWGQGTTVTVSS
VL: DIQLTQSPSFLSASVGDRVTITCRASQGISSYLAWYQQKPGKAPKLLIYAASTLQSGVPSRFSGSGSGTEFTLTISSLQPEDFATYYCQHLNSYPFTFGPGTKVDLK

Key:
[1] = target: T1, hFc-tagged human 4-1BB extracellular domain protein (4-1BB-hFc) (human, UniProt Q07011 24-186, limits assumed); assay: ELISA: 4-1BB-hFc coated at 0.5 µg/mL, his-muCD8a-4-1BBL titrated, detection by biotin anti-mouse CD8a and streptavidin-HRP, OD450
T1 construct: also called immunogen A; 4-1BB^ECD-hFc; not shown: human IgG Fc fragment (hFc) of the pCpC vector

[2] = target: T2, human 4-1BB, full length, on transfected cells (human, UniProt Q07011 24-255); assay: FACS, CHOK1-h4-1BB cells; Ab 2 ug/ml
T2 construct: whole, on cells; also called CHOK1-h4-1BB
T2 sequence (Q07011 24-255): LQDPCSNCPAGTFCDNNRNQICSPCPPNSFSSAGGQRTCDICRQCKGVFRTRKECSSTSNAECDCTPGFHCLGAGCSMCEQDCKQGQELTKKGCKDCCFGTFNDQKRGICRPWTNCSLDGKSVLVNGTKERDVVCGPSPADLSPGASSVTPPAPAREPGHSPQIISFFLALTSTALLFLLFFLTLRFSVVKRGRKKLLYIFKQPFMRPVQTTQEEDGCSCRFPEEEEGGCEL
Description: (§1) The pIRES plasmid carrying the full-length gene of monkey-derived […] (the preparation method is the same as the preparation method of the pCpC vector carrying the human-derived IgG Fc fragment (hFc) in “Preparation of immunogen A” of the step (1) in Example 1, in which the database accession number of the amino acid sequence of the extracellular region of monkey 4-1BB protein (Phe19-Thr239) is G7PSE7) was transfected into CHOK1 cell line to obtain CHOK1 stable transfected cell line containing monkey 4-1BB (herein referred to as CHOK1-c4-1BB stable cell line). The CHOK1-h4-1BB stable cell line and the CHOK1-c4-1BB stable cell line were expanded and cultivated to 90% confluence in T-75 cell culture flasks. The medium was exhausted, and washed twice with HBSS buffer (Hanks Balanced Salt Solution, purchased from Invitrogen), and then the cells were treated and collected with enzyme-free cell dissociation solution (Versene solution, purchased from Life Technology). The cells were washed twice with HBSS buffer, and after cell counting, the cells were diluted with HBSS buffer to 2×10⁶ cells per ml, and 1% goat serum blocking solution was added, the percentage being the mass percentage. It was incubated on ice for 30 minutes, and then washed twice with HBSS buffer by centrifugation. The collected cells were suspended in FACS buffer (HBSS containing 1% BSA, the percentage was the mass percentage) to 2×10⁶ cells/mL, and 100 μl per well was added to a 96-well FACS reaction plate. The purified 4-1BB antibody test sample obtained in Example 2 was added, 100 microliters per well and incubated on ice for 2 hours. […] It was washed three times with FACS buffer by centrifugation, and 100 μl of fixative [4% (v/v) paraformaldehyde] per well was added to suspend cells, and washed twice with FACS buffer after 10 minutes by centrifugation. The cells were suspended with 100 microliters of FACS buffer, and the results were detected and analyzed with FACS (FACS Calibur, purchased from BD).

[3] = target: T3, monkey 4-1BB on CHOK1 cells (monkey); assay: FACS, CHOK1-c4-1BB cells; Ab 2 ug/ml
T3 construct: whole, on cells; also called CHOK1-c4-1BB
Description: as §1

[4] = target: T2, human 4-1BB, full length, on …; assay: FACS, CHOK1-h4-1BB cells; Ab 10 ug/ml
Description: as §1

[5] = target: T3, monkey 4-1BB on CHOK1 cells; assay: FACS, CHOK1-c4-1BB cells; Ab 10 ug/ml
Description: as §1

[6] = target: T2, human 4-1BB, full length, on …; assay: FACS, CHOK1-h4-1BB cells; Ab 0.4 ug/ml
Description: as §1

[7] = target: T3, monkey 4-1BB on CHOK1 cells; assay: FACS, CHOK1-c4-1BB cells; Ab 0.4 ug/ml
Description: as §1

[8] = target: T2, human 4-1BB, full length, on …; assay: FACS, CHOK1-h4-1BB cells; Ab 0.08 ug/ml
Description: as §1

[9] = target: T3, monkey 4-1BB on CHOK1 cells; assay: FACS, CHOK1-c4-1BB cells; Ab 0.08 ug/ml
Description: as §1

[10] = target: T2, human 4-1BB, full length, on …; assay: FACS, CHOK1-h4-1BB cells; Ab 0.016 ug/ml
Description: as §1

[11] = target: T3, monkey 4-1BB on CHOK1 cells; assay: FACS, CHOK1-c4-1BB cells; Ab 0.016 ug/ml
Description: as §1

[12] = target: T2, human 4-1BB, full length, on …; assay: FACS, CHOK1-h4-1BB cells; Ab 0.0032 ug/ml
Description: as §1

[13] = target: T3, monkey 4-1BB on CHOK1 cells; assay: FACS, CHOK1-c4-1BB cells; Ab 0.0032 ug/ml
Description: as §1

[14] = target: T2, human 4-1BB, full length, on …; assay: FACS, CHOK1-h4-1BB cells; Ab 0.00013 ug/ml
Description: as §1

[15] = target: T2, human 4-1BB, full length, on …; assay: FACS, CHOK1-h4-1BB cells; Ab 0.00064 ug/ml
Description: as §1

[16] = target: T3, monkey 4-1BB on CHOK1 cells; assay: FACS, CHOK1-c4-1BB cells; Ab 0.00013 ug/ml
Description: as §1

[17] = target: T3, monkey 4-1BB on CHOK1 cells; assay: FACS, CHOK1-c4-1BB cells; Ab 0.00064 ug/ml
Description: as §1

Binder | EC50 (read off the curve) [1] | average fluorescence intensity [2] | average fluorescence intensity [3] | average fluorescence intensity [4] | average fluorescence intensity [5] | average fluorescence intensity [6] | average fluorescence intensity [7] | average fluorescence intensity [8] | average fluorescence intensity [9] | average fluorescence intensity [10] | average fluorescence intensity [11] | average fluorescence intensity [12] | average fluorescence intensity [13] | average fluorescence intensity [14] | average fluorescence intensity [15] | average fluorescence intensity [16] | average fluorescence intensity [17]
B1 | ~0.03 µg/mL | – | – | – | – | – | – | – | – | – | – | – | – | – | – | – | –
B2 | – | 390 MFI | 479 MFI | 458 MFI | 552 MFI | 154 MFI | 204 MFI | 43.1 MFI | 51.1 MFI | 12.7 MFI | 15.2 MFI | 4.6 MFI | 5.4 MFI | 2 MFI | 2.5 MFI | 2.2 MFI | 2.9 MFI
